Reference: patent publication US6635450 (FRED HUTCHINSON CANCER RESEARCH CENTER, dated 2003)

Molecular target: Cdk2 alone (baculoviral HA-tagged Cdk2 immunoadsorbed to sepharose beads) (UniProt P24941 1-298)
Test: depletion of the Cdk2 inhibitor from Mv1Lu cell extracts on Cdk2 sepharose beads, read by cyclin E-associated H1 kinase activity
Protocol: Cyclin E-Cdk2 sepharose was prepared by mixing 1.2 µl of Sf9 cell lysate containing Hemagglutinin tagged Cdk2 (Cdk2 -HA) with 12 µl lysate containing cyclin E in buffer A (30 mM HEPES-KCH pH 7.5, 7.5 mM MgCl_2, 1 mM DTT) containing 10 mM ATP and incubated at room temperature for 30 minutes to allow complete formation. The assembly reaction was then adjusted to 250 mM NaCl and 0.5% NP40. The Cdk2-HA containing complexes were immunoprecipitated with the 12CA5 monoclonal antibody (BABCO) and collected on protein A-sepharose. Cdk2 sepharose was prepared in an identical manner except cyclin E was omitted. Immunoprecipitates were washed twice with NP40 RIPA buffer ([…], 250 mM NaCl, 10 mM EDTA, 20 mM Tris-HCl pH 7.4) and four times with buffer A. The matrix was divided into 4 aliquots and incubated with 100 µg of cell extract in buffer A containing 3 mM ATP, 20 µg/ml creatine phosphokinase, 40 mM phospho-creatine for 45 minutes at 37° C. After incubation the supernatant was collected and assayed for Cdk2 activation by addition of recombinant cyclin E as described below. A critical parameter in the execution of this experiment is to ensure that no cyclin, Cdk or complex leaks from the beads into the cell extract. This is unpredictable and must be checked by immunoblotting each time the experiment is performed.

B1: p27 protein, the 27 kD cyclin E-Cdk2 binding protein of Mv1Lu mink epithelial cells (endogenous) (other)
chain: MSNVRVSNGSPSLERMDARQAEYPKPSACRNLFGPVNHEELTRDLEKHRRDMEEASQRKWNFDFQNHKPLEGKYEWQEVEKGSLPEFYYRPPRPPKGACKVPAQESQDVSGTRQAVPLMGSQANSEDTHLVDQKTDTADNQAGLAEQCTGIRKRPATDDSSPQNKRANRTEENVSDGS
notes: also called p27^Kip1; Kip1
Does B1 bind?
Result: no binding
